Results taken from patent publication US20030040042A1, “Recombinant fibroblast growth factors” (published 2003).
Positions count from the first letter of the chain named. One block for each molecule: values may come before it.

Legend:
[1] = molecular target: FGF receptor on Balb/c 3T3 cells; test: competition with [125I]-bFGF on Balb/c 3T3 cells, no heparin
[2] = molecular target: FGF receptor on Balb/c 3T3 cells; test: competition with [125I]-bFGF on Balb/c 3T3 cells, 1 ug/ml heparin
[3] = molecular target: FGF receptor on Balb/c 3T3 cells
[4] = molecular target: FGF receptor on bovine adrenal cortex capillary endothelial (ACE) cells (bovine) (UniProt P12820)
[5] = molecular target: T1, FGF receptor on bovine adrenal cortex capillary endothelial (ACE) cells (bovine, UniProt P12820); test: cell-based or functional assay
T1 sequence: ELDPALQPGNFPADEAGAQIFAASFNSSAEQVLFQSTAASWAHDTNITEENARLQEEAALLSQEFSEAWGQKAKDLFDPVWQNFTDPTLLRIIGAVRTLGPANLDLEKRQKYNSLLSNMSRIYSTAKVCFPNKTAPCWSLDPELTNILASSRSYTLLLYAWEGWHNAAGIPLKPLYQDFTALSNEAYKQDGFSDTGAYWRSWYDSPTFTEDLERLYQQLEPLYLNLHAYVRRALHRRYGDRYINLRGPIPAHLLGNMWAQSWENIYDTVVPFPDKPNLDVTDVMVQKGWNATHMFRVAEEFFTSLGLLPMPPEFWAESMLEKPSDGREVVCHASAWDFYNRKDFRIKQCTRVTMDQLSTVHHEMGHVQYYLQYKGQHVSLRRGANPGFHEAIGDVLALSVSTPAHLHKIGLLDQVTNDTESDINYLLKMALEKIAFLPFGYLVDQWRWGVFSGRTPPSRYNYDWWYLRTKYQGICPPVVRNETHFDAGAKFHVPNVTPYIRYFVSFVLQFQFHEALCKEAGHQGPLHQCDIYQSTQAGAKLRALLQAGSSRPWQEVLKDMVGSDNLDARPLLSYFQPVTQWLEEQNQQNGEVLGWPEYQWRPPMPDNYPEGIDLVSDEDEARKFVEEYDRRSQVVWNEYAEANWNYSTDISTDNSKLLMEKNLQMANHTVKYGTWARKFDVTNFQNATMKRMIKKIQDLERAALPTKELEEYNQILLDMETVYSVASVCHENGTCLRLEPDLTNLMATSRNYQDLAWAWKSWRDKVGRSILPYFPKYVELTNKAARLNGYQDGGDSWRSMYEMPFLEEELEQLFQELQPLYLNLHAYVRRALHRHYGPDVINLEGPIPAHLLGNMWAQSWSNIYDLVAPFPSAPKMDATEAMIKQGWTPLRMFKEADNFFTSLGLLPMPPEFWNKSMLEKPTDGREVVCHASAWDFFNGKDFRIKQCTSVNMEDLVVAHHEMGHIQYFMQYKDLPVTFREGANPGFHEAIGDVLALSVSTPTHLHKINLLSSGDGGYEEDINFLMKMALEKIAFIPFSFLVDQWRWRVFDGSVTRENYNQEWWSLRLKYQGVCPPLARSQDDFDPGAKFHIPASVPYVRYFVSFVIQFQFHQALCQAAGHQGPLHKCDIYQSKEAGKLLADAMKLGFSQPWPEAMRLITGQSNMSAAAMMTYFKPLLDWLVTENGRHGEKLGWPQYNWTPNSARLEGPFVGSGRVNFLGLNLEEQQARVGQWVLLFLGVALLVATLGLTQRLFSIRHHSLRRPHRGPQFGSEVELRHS

Molecule: bFGF-E100S (from UniProt P09038-2) (ligand)
FGF-Rc Comp. (ED50 analog / ED50 wild type FGF) [1]: 1.1 | FGF-Rc Comp. (ED50 analog / ED50 wild type FGF) [2]: 0.5

Molecule: bFGF-E108A (from UniProt P09038-2) (ligand)
3T3 Mito., no heparin (ED50 wild type / ED50 analog x 100%) (% of wild type) [3]: 180 | FGF-Rc Comp. (ED50 analog / ED50 wild type FGF) [1]: 2.5 | FGF-Rc Comp. (ED50 analog / ED50 wild type FGF) [2]: 2.5

Molecule: bFGF-K119S (from UniProt P09038-2) (ligand)
3T3 Mito., 1 ug/ml heparin (ED50 wild type / ED50 analog x 100%) (% of wild type) [3]: 250 | 3T3 Mito., no heparin (ED50 wild type / ED50 analog x 100%) (% of wild type) [3]: 48 | FGF-Rc Comp. (ED50 analog / ED50 wild type FGF) [1]: 0.35 | FGF-Rc Comp. (ED50 analog / ED50 wild type FGF) [2]: 0.25

Molecule: bFGF-K128S (from UniProt P09038-2) (ligand)
3T3 Mito., no heparin (ED50 wild type / ED50 analog x 100%) (% of wild type) [3]: 210 | FGF-Rc Comp. (ED50 analog / ED50 wild type FGF) [1]: 0.3 | FGF-Rc Comp. (ED50 analog / ED50 wild type FGF) [2]: 0.25

Molecule: bFGF-R129T (from UniProt P09038-2) (ligand)
3T3 Mito., 1 ug/ml heparin (ED50 wild type / ED50 analog x 100%) (% of wild type) [3]: 190 | 3T3 Mito., no heparin (ED50 wild type / ED50 analog x 100%) (% of wild type) [3]: 87 | FGF-Rc Comp. (ED50 analog / ED50 wild type FGF) [1]: 1.3 | FGF-Rc Comp. (ED50 analog / ED50 wild type FGF) [2]: 0.5

Molecule: bFGF-D46A (from UniProt P09038-2) (ligand)
FGF-Rc Comp. (ED50 analog / ED50 wild type FGF) [1]: 0.5

Molecule: bFGF-K35S (from UniProt P09038-2) (ligand)
FGF-Rc Comp. (ED50 analog / ED50 wild type FGF) [1]: 0.1 | FGF-Rc Comp. (ED50 analog / ED50 wild type FGF) [2]: 0.05

Molecule: bFGF-D50A (from UniProt P09038-2) (ligand)
FGF-Rc Comp. (ED50 analog / ED50 wild type FGF) [1]: 2.5 | FGF-Rc Comp. (ED50 analog / ED50 wild type FGF) [2]: 2.5

B1: bFGF-C34/78/96/101S (ligand)
chain: MAAGSITTLPALPEDGGSGAFPPGHFKDPKRLYSKNGGFFLRIHPDGRVDGVREKSDPHIKLQLQAEERGVVSIKGVSANRYLAMKEDGRLLASKSVTDESFFFERLESNNYNTYRSRKYTSWYVALKRTGQYKLGSKTGPGQKAILFLPMSAKS
ACE Mito., 1 ug/ml heparin (ED50 wild type / ED50 analog x 100%) [5]: 119 % of wild type | ACE Mito., no heparin (ED50 wild type / ED50 analog x 100%) [5]: 7 % of wild type | FGF-Rc Comp. (ED50 analog / ED50 wild type FGF) [1]: 1 | FGF-Rc Comp. (ED50 analog / ED50 wild type FGF) [2]: 0.5

More lines, now with the values ahead:

3T3 Mito., 1 ug/ml heparin (ED50 wild type / ED50 analog x 100%) (% of wild type) [3]: 8 | 3T3 Mito., no heparin (ED50 wild type / ED50 analog x 100%) (% of wild type) [3]: 1 | FGF-Rc Comp. (ED50 analog / ED50 wild type FGF) [1]: 2 | FGF-Rc Comp. (ED50 analog / ED50 wild type FGF) [2]: 1.6
Molecule: bFGF-K55I (from UniProt P09038-2) (ligand)

3T3 Mito., 1 ug/ml heparin (ED50 wild type / ED50 analog x 100%) (% of wild type) [3]: 140 | 3T3 Mito., no heparin (ED50 wild type / ED50 analog x 100%) (% of wild type) [3]: 200
Molecule: bFGF-K128E (from UniProt P09038-2) (ligand)

3T3 Mito., 1 ug/ml heparin (ED50 wild type / ED50 analog x 100%) (% of wild type) [3]: 160 | 3T3 Mito., no heparin (ED50 wild type / ED50 analog x 100%) (% of wild type) [3]: 118 | FGF-Rc Comp. (ED50 analog / ED50 wild type FGF) [1]: 0.2 | FGF-Rc Comp. (ED50 analog / ED50 wild type FGF) [2]: 0.1
Molecule: bFGF-C78/96S (from UniProt P09038-2) (ligand)

3T3 Mito., 1 ug/ml heparin (ED50 wild type / ED50 analog x 100%) (% of wild type) [3]: 300 | 3T3 Mito., no heparin (ED50 wild type / ED50 analog x 100%) (% of wild type) [3]: 50 | FGF-Rc Comp. (ED50 analog / ED50 wild type FGF) [1]: 0.2
Molecule: bFGF-R116T (from UniProt P09038-2) (ligand)

FGF-Rc Comp. (ED50 analog / ED50 wild type FGF) [1]: 0.22 | FGF-Rc Comp. (ED50 analog / ED50 wild type FGF) [2]: 0.25
Molecule: bFGF-R53L (from UniProt P09038-2) (ligand)

3T3 Mito., 1 ug/ml heparin (ED50 wild type / ED50 analog x 100%) (% of wild type) [3]: 216 | 3T3 Mito., no heparin (ED50 wild type / ED50 analog x 100%) (% of wild type) [3]: 77 | FGF-Rc Comp. (ED50 analog / ED50 wild type FGF) [1]: 0.6 | FGF-Rc Comp. (ED50 analog / ED50 wild type FGF) [2]: 0.5
Molecule: bFGF-R90T (from UniProt P09038-2) (ligand)

3T3 Mito., no heparin (ED50 wild type / ED50 analog x 100%) (% of wild type) [3]: 160 | FGF-Rc Comp. (ED50 analog / ED50 wild type FGF) [1]: 1 | FGF-Rc Comp. (ED50 analog / ED50 wild type FGF) [2]: 1
Molecule: bFGF-N113S (from UniProt P09038-2) (ligand)

ACE Mito., no heparin (ED50 wild type / ED50 analog x 100%) (% of wild type) [4]: 1.7 | FGF-Rc Comp. (ED50 analog / ED50 wild type FGF) [1]: 0.16 | FGF-Rc Comp. (ED50 analog / ED50 wild type FGF) [2]: 2
Molecule: bFGF-R48L (from UniProt P09038) (ligand)

3T3 Mito., 1 ug/ml heparin (ED50 wild type / ED50 analog x 100%) (% of wild type) [3]: 0.2 | 3T3 Mito., no heparin (ED50 wild type / ED50 analog x 100%) (% of wild type) [3]: 0.2 | FGF-Rc Comp. (ED50 analog / ED50 wild type FGF) [1]: 100 | FGF-Rc Comp. (ED50 analog / ED50 wild type FGF) [2]: 100
Molecule: bFGF-Y112A (from UniProt P09038-2) (ligand)

ACE Mito., 1 ug/ml heparin (ED50 wild type / ED50 analog x 100%) [5]: 125 % of wild type | ACE Mito., no heparin (ED50 wild type / ED50 analog x 100%) [5]: 23 % of wild type
B2: bFGF-C78/96/101S (ligand)
chain: B1 chain with S34C
